In publication PMC2364164:

Biological target: recombinant fusion protein of MVP and glutathione-S-transferase (GST-MVP) (human) (UniProt Q14764)
Assay: SPR; BIAcore 2000; GST-MVP immobilised on CM-5 sensorchip (2000 resonance units); soluble Fab flowed at 25 μl per minute, room temperature, HBS-EP (0.01 M HEPES pH 7.4, 0.15 M NaCl, 3 mM EDTA, 0.005% polysorbate 20); dissociation rates only

UniProt Q14764, sequence (Q14764 whole entry, the tested form may be a part): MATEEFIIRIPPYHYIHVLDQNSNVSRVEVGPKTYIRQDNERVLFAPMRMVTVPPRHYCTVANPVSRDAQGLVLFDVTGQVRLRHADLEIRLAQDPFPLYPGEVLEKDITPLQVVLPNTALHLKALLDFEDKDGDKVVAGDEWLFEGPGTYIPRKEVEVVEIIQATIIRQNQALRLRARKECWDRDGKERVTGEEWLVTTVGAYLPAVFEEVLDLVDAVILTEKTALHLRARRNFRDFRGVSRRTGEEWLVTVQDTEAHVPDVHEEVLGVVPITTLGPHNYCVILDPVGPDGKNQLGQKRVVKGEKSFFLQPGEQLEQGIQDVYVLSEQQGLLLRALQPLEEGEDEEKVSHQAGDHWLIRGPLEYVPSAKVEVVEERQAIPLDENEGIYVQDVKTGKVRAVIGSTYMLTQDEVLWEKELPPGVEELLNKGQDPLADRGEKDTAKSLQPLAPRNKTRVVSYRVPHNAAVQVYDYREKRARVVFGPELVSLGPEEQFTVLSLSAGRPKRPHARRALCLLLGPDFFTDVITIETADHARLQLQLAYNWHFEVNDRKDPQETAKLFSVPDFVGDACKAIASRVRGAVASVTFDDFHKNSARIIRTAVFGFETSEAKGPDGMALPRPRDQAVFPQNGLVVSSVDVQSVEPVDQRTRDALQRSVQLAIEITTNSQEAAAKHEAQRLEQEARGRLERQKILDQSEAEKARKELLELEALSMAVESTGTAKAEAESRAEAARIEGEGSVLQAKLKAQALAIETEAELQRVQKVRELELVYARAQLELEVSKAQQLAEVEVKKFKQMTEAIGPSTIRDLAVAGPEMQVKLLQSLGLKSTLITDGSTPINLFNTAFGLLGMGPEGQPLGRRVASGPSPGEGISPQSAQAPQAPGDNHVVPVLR

B1: MVP-φ4 human Fab fragment (soluble) (Fab, V domains shown)
VH: QLQLQESGPGLVKPSETLSLTCSVSGGSISSGGYYWSWIRQRPGKGLEWIGYIYYSGSTTYNPSLKSRVTMSVDTSKNQFSLKLSSVTAADTAFYYCARQGVYYYYGMDVWGQGTTVTVSS
VL: NFMLTQPHSVSESPGKTITISCTRSSGSIGSNYVYWYQQRPDSSPTIVIYADNERPSGVPGRFSGSIDSSSNSASLTISGLRAEDEADYYCQSYSNNKWIFGGGTKVTVL
Work on B1 yielded a koff of 0.0013 s⁻¹.
